According to publication PMC6005658 (2017):
Where two headings read alike, the source gives them in different places. *1 amine or outer side, *2 acyl side, *3 side chain or, on linkers, in order; H or OH if unused. Bridges are numbered along the chain shown (N, C = ends). [ ]: non-standard residue; d: D form. Tyr(All) = C=CCOc1ccc(C[C@H](N[*:1])C(=O)[*:2])cc1

T1: arodyn analog 7 (SMILES …)
T1 chain: Ac-FF[Tyr(All)]RLRRIRPK-NH2

T2: arodyn analog 3 (staple 1-2; also: RCM olefin trans)
T2 chain: Ac-[Tyr(All)][Tyr(All)]FRLRRIRPK-NH2

T3: arodyn analog 5
T3 chain: Ac-[Tyr(All)]FFRLRRIRPK-NH2

T4: arodyn analog 4 (staple 2-3; also: RCM olefin trans)
T4 chain: Ac-F[Tyr(All)][Tyr(All)]RLRRIRPK-NH2

T5: arodyn analog 6 (SMILES …)
T5 chain: Ac-F[Tyr(All)]FRLRRIRPK-NH2


Key:
Experiment in all cases: radioligand binding
[1] = molecular target: T1, arodyn analog 7
[2] = molecular target: T2, arodyn analog 3
[3] = molecular target: T3, arodyn analog 5
[4] = molecular target: T4, arodyn analog 4
[5] = molecular target: T5, arodyn analog 6
[6] = molecular target: T1, arodyn analog 7
[7] = molecular target: T2, arodyn analog 3
[8] = molecular target: T3, arodyn analog 5
[9] = molecular target: T4, arodyn analog 4
[10] = molecular target: T5, arodyn analog 6

Row | Ki [1] | Ki [2] | Ki [3] | Ki [4] | Ki [5] | Ki [6] | Ki [7] | Ki [8] | Ki [9] | Ki [10] | Binder
1 | 1.43 µM | 1.92 µM | 1.17 µM | 0.903 µM | 1.46 µM |  |  |  |  |  | μ opioid receptor (protein) MDSSTGPGNTSDCSDPLAQASCSPAPGSWLNLSHVDGNQSDPCGLNRTGLGGNDSLCPQTGSPSMVTAITIMALYSIVCVVGLFGNFLVMYVIVRYTKMKTATNIYIFNLALADALATSTLPFQSVNYLMGTWPFGTILCKIVISIDYYNMFTSIFTLCTMSVDRYIAVCHPVKALDFRTPRNAKIVNVCNWILSSAIGLPVMFMATTKYRQGSIDCTLTFSHPTWYWENLLKICVFIFAFIMPVLIITVCYGLMILRLKSVRMLSGSKEKDRNLRRITRMVLVVVAVFIVCWTPIHIYVIIKALITIPETTFQTVSWHFCIALGYTNSCLNPVLYAFLDENFKRCFREFCIPTSSTIEQQNSTRVRQNTREHPSTANTVDRTNHQLENLEAETAPLP
2 |  |  |  |  |  | 0.134 µM | 0.0717 µM | 0.0833 µM | 0.0554 µM | 0.0663 µM | κ opioid receptor (protein) MESPIQIFRGEPGPTCAPSACLLPNSSSWFPNWAESDSNGSVGSEDQQLEPAHISPAIPVIITAVYSVVFVVGLVGNSLVMFVIIRYTKMKTATNIYIFNLALADALVTTTMPFQSAVYLMNSWPFGDVLCKIVISIDYYNMFTSIFTLTMMSVDRYIAVCHPVKALDFRTPLKAKIINICIWLLASSVGISAIVLGGTKVREDVDVIECSLQFPDDEYSWWDLFMKICVFVFAFVIPVLIIIVCYTLMILRLKSVRLLSGSREKDRNLRRITKLVLVVVAVFIICWTPIHIFILVEALGSTSHSTAVLSSYYFCIALGYTNSSLNPVLYAFLDENFKRCFRDFCFPIKMRMERQSTNRVRNTVQDPASMRDVGGMNKPV
